# Source: patent US20240270846A1 (published 2024)
# Residue numbers refer to the chain shown, from its start.
# B1: CE115HA000 H chain altered form N54D (antibody, human IgG1, kappa, L234A L235A, N297A, name in Kabat numbering)
# heavy: QVQLVESGGGVVQPGRSLRLSCAASGFTFSNAWMHWVRQAPGKGLEWVAQIKAKSNDYATYYAESVKGRFTISRDDSKNSLYLQMNSLKTEDTAVYYCRYVHYGAYYGVDAWGQGTTVTVSSASTKGPSVFPLAPSSKSTSGGTAALGCLVKDYFPEPVTVSWNSGALTSGVHTFPAVLQSSGLYSLSSVVTVPSSSLGTQTYICNVNHKPSNTKVDKKVEPKSCDKTHTCPPCPAPEAAGGPSVFLFPPKPKDTLMISRTPEVTCVVVDVSHEDPEVKFNWYVDGVEVHNAKTKPREEQYASTYRVVSVLTVLHQDWLNGKEYKCKVSNKALPAPIEKTISKAKGQPREPQVYTLPPSRCELTKNQVSLSCAVKGFYPSDIAVEWESNGQPENNYKTTPPVLDSDGSFFLVSKLTVDKSRWQQGNVFSCSVMHEALHNHYTQKSLSLSPDYKDDDDK
# chain: EPKSSDKTHTCPPCPAPELLGGPSVFLFPPKPKDTLMISRTPEVTCVVVDVSHEDPEVKFNWYVDGVEVHNAKTKPREEQYNSTYRVVSVLTVLHQDWLNGKEYKCKVSNKALPAPIEKTISKAKGQPREPQVCTLPPSRDELTKNQVSLWCLVKGFYPSDIAVEWESNGQPENNYKTTPPVLDSDGSFFLYSKLTVDKSRWQQGNVFSCSVMHEALHNRYTQKSLSLSP
# light: DIVMTQSPLSLPVTPGEPASISCRSSQSLVHSNRNTYLHWYQQKPGQAPRLLIYKVSNRFSGVPDRFSGSGSGTDFTLKISRVEAEDVGVYYCGQGTQVPYTFGQGTKLEIKRTVAAPSVFIFPPSDEQLKSGTASVVCLLNNFYPREAKVQWKVDNALQSGNSQESVTEQDSKDSTYSLSSTLTLSKADYEKHKVYACEVTHQGLSSPVTKSFNRGEC
# notes: one-arm antibody
# B2: CE115HA000 H chain altered form Q50L (antibody, human IgG1, kappa, L234A L235A, N297A, name in Kabat numbering)
# heavy: B1 heavy with Q50L, D57N
# chain: B1 chain
# light: B1 light
# notes: one-arm antibody
# B3: CE115HA000 H chain altered form Q50I (antibody, human IgG1, kappa, L234A L235A, N297A, name in Kabat numbering)
# heavy: B1 heavy with Q50I, D57N
# chain: B1 chain
# light: B1 light
# notes: one-arm antibody
# B4: CE115HA000 H chain altered form S52cK (antibody, human IgG1, kappa, L234A L235A, N297A, name in Kabat numbering)
# heavy: B1 heavy with S55K, D57N
# chain: B1 chain
# light: B1 light
# notes: one-arm antibody
# B5: CE115HA000 H chain altered form T28D (antibody, human IgG1, kappa, L234A L235A, N297A, name in Kabat numbering)
# heavy: B1 heavy with T28D, D57N
# chain: B1 chain
# light: B1 light
# notes: one-arm antibody
# B6: CE115HA000 H chain altered form S52cY (antibody, human IgG1, kappa, L234A L235A, N297A, name in Kabat numbering)
# heavy: B1 heavy with S55Y, D57N
# chain: B1 chain
# light: B1 light
# notes: one-arm antibody
# B7: CE115HA000 H chain altered form T28S (antibody, human IgG1, kappa, L234A L235A, N297A, name in Kabat numbering)
# heavy: B1 heavy with T28S, D57N
# chain: B1 chain
# light: B1 light
# notes: one-arm antibody
# B8: CE115HA000 H chain altered form T57A (antibody, human IgG1, kappa, L234A L235A, N297A, name in Kabat numbering)
# heavy: B1 heavy with D57N, T60A
# chain: B1 chain
# light: B1 light
# notes: one-arm antibody
# B9: CE115HA000 H chain altered form Q50Y (antibody, human IgG1, kappa, L234A L235A, N297A, name in Kabat numbering)
# heavy: B1 heavy with Q50Y, D57N
# chain: B1 chain
# light: B1 light
# notes: one-arm antibody
# B10: CE115HA000 H chain altered form S52cV (antibody, human IgG1, kappa, L234A L235A, N297A, name in Kabat numbering)
# heavy: B1 heavy with S55V, D57N
# chain: B1 chain
# light: B1 light
# notes: one-arm antibody
# B11: CE115HA000 H chain altered form S30G (antibody, human IgG1, kappa, L234A L235A, N297A, name in Kabat numbering)
# heavy: B1 heavy with S30G, D57N
# chain: B1 chain
# light: B1 light
# notes: one-arm antibody
# B12: CE115HA000 H chain altered form S52cD (antibody, human IgG1, kappa, L234A L235A, N297A, name in Kabat numbering)
# heavy: B1 heavy with S55D, D57N
# chain: B1 chain
# light: B1 light
# notes: one-arm antibody
# B13: CE115HA000 H chain altered form N54S (antibody, human IgG1, kappa, L234A L235A, N297A, name in Kabat numbering)
# heavy: B1 heavy with D57S
# chain: B1 chain
# light: B1 light
# notes: one-arm antibody
# B14: CE115HA000 H chain altered form N54G (antibody, human IgG1, kappa, L234A L235A, N297A, name in Kabat numbering)
# heavy: B1 heavy with D57G
# chain: B1 chain
# light: B1 light
# notes: one-arm antibody
# B15: CE115HA000 H chain altered form N54F (antibody, human IgG1, kappa, L234A L235A, N297A, name in Kabat numbering)
# heavy: B1 heavy with D57F
# chain: B1 chain
# light: B1 light
# notes: one-arm antibody
# B16: CE115HA000 H chain altered form N54K (antibody, human IgG1, kappa, L234A L235A, N297A, name in Kabat numbering)
# heavy: B1 heavy with D57K
# chain: B1 chain
# light: B1 light
# notes: one-arm antibody
# B17: CE115HA000 H chain altered form S52cL (antibody, human IgG1, kappa, L234A L235A, N297A, name in Kabat numbering)
# heavy: B1 heavy with S55L, D57N
# chain: B1 chain
# light: B1 light
# notes: one-arm antibody
# B18: CE115HA000 H chain altered form S52cG (antibody, human IgG1, kappa, L234A L235A, N297A, name in Kabat numbering)
# heavy: B1 heavy with S55G, D57N
# chain: B1 chain
# light: B1 light
# notes: one-arm antibody
# B19: CE115HA000 H chain altered form N54L (antibody, human IgG1, kappa, L234A L235A, N297A, name in Kabat numbering)
# heavy: B1 heavy with D57L
# chain: B1 chain
# light: B1 light
# notes: one-arm antibody
# B20: CE115HA000 H chain altered form Q50D (antibody, human IgG1, kappa, L234A L235A, N297A, name in Kabat numbering)
# heavy: B1 heavy with Q50D, D57N
# chain: B1 chain
# light: B1 light
# notes: one-arm antibody
# B21: CE115HA000 H chain altered form Q50A (antibody, human IgG1, kappa, L234A L235A, N297A, name in Kabat numbering)
# heavy: B1 heavy with Q50A, D57N
# chain: B1 chain
# light: B1 light
# notes: one-arm antibody
# B22: CE115HA000 H chain altered form S52cF (antibody, human IgG1, kappa, L234A L235A, N297A, name in Kabat numbering)
# heavy: B1 heavy with S55F, D57N
# chain: B1 chain
# light: B1 light
# notes: one-arm antibody
# B23: CE115HA000 H chain altered form R16E (antibody, human IgG1, kappa, L234A L235A, N297A, name in Kabat numbering)
# heavy: B1 heavy with R16E, D57N
# chain: B1 chain
# light: B1 light
# notes: one-arm antibody
# B24: CE115HA000 H chain altered form Q50S (antibody, human IgG1, kappa, L234A L235A, N297A, name in Kabat numbering)
# heavy: B1 heavy with Q50S, D57N
# chain: B1 chain
# light: B1 light
# notes: one-arm antibody
# B25: CE115HA000 H chain altered form S52cQ (antibody, human IgG1, kappa, L234A L235A, N297A, name in Kabat numbering)
# heavy: B1 heavy with S55Q, D57N
# chain: B1 chain
# light: B1 light
# notes: one-arm antibody
# B26: CE115HA000 H chain altered form S30D (antibody, human IgG1, kappa, L234A L235A, N297A, name in Kabat numbering)
# heavy: B1 heavy with S30D, D57N
# chain: B1 chain
# light: B1 light
# notes: one-arm antibody
# B27: CE115HA000 H chain altered form S52cA (antibody, human IgG1, kappa, L234A L235A, N297A, name in Kabat numbering)
# heavy: B1 heavy with S55A, D57N
# chain: B1 chain
# light: B1 light
# notes: one-arm antibody
# B28: CE115HA000 H chain altered form Q50E (antibody, human IgG1, kappa, L234A L235A, N297A, name in Kabat numbering)
# heavy: B1 heavy with Q50E, D57N
# chain: B1 chain
# light: B1 light
# notes: one-arm antibody
# B29: CE115HA000 H chain altered form R19T (antibody, human IgG1, kappa, L234A L235A, N297A, name in Kabat numbering)
# heavy: B1 heavy with R19T, D57N
# chain: B1 chain
# light: B1 light
# notes: one-arm antibody
# B30: CE115HA000 H chain altered form Q50K (antibody, human IgG1, kappa, L234A L235A, N297A, name in Kabat numbering)
# heavy: B1 heavy with Q50K, D57N
# chain: B1 chain
# light: B1 light
# notes: one-arm antibody
# B31: CE115HA000 H chain altered form N54Y (antibody, human IgG1, kappa, L234A L235A, N297A, name in Kabat numbering)
# heavy: B1 heavy with D57Y
# chain: B1 chain
# light: B1 light
# notes: one-arm antibody
# B32: CE115HA000 H chain altered form R16Q (antibody, human IgG1, kappa, L234A L235A, N297A, name in Kabat numbering)
# heavy: B1 heavy with R16Q, D57N
# chain: B1 chain
# light: B1 light
# notes: one-arm antibody
# B33: CE115HA000 H chain altered form N54Q (antibody, human IgG1, kappa, L234A L235A, N297A, name in Kabat numbering)
# heavy: B1 heavy with D57Q
# chain: B1 chain
# light: B1 light
# notes: one-arm antibody
# Biological target: T1, CD3 epsilon homodimer protein (UniProt P07766 23-126)
# T1 construct: also called CD3 (CD3 epsilon)
# Assay: SPR Biacore T200, CD3 epsilon homodimer on chip, antibody as analyte;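 also: homodimer amine-coupled to a CM4 sensor chip, run at 25 °C in HBS-EP+ buffer, with kinetic parameters derived in Biacore T200 Evaluation Software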
# T1 sequence (P07766 23-126): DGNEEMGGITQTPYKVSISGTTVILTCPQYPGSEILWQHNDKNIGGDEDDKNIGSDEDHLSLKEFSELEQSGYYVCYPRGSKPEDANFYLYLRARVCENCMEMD
row,Binder,KD ratio (KD of CE115HA000 / KD of altered form)
1,B1,0.59
2,B2,1.41
3,B3,1.21
4,B4,0.88
5,B5,0.93
6,B6,0.87
7,B7,0.79
8,B8,0.87
9,B9,49.1
10,B10,0.82
11,B11,0.93
12,B12,0.55
13,B13,0.57
14,B14,0.84
15,B15,0.97
16,B16,0.82
17,B17,0.94

row,Binder,KD ratio (KD of CE115HA000 / KD of altered form)
1,B18,0.81
2,B19,0.91
3,B20,75.4
4,B21,22.6
5,B22,0.93
6,B23,0.74
7,B24,47.4
8,B25,0.97
9,B26,0.79
10,B27,0.67
11,B28,16700
12,B29,0.81
13,B30,0.71
14,B31,1.03
15,B32,0.87
16,B33,0.8
